Reference: US20250041418A1

Molecular target: anti-EGFR antibody (Cetuximab)
Experiment: cell-based or functional assay

Substance: CD16a, exogenously expressed on iNK cells
- cytotoxic activity (ADCC activity) against A549 cells expressing EGFR, LDH assay, 4 hr co-culture in the presence of Cetuximab (fold against control iNK cells): 2
